These results are taken from patent US20250179155A1 (VANDERBILT UNIVERSITY, published 2025).

Where only a bound is given, the exact number is not on record here.

For assay [1], the target named is full-length TcdB (TcdB1-2366), VPI10463 (Clostridioides difficile strain VPI10463, UniProt P18177 1-2366). Briefly: cell-based or functional assay.
Assay [2] concerns the target T1, TcdB-CROPs (TcdB1827-2366) (Clostridioides difficile strain VPI10463, UniProt P18177 1827-2366).
T1 construct: range 1827-2366; also called TcdB CROPS domain; TcdBX-Y
Briefly: ELISA on isolated toxin domains (domain specificity). Background: In an ELISA, binding on a coated surface is turned into a signal by an enzyme label.

The target in a further assay is T2, TcdA-GTD (TcdA1-542) (Clostridioides difficile strain VPI10463, UniProt P16154 1-542).
T2 construct: range 1-542; also called TcdA glucosyltransferase domain
As to the kind of experiment: ELISA-like screen of clone lysates on isolated domains.

Assay [3] concerns the target T3, full-length TcdA (TcdA1-2710) (Clostridioides difficile strain VPI10463, UniProt P16154 1-2710). As to the kind of experiment: cell-based or functional assay.
The target of assay [4] is T3, full-length TcdA (TcdA1-2710). As to the kind of experiment: sandwich ELISA on filtered culture supernatant (VPI10463), FIG. 3J.
The next assay concerns the target T4, TcdA1-1809 (Clostridioides difficile strain VPI10463, UniProt P16154 1-1809).
T4 construct: range 1-1809
Briefly: ELISA on isolated toxin domains (domain specificity).

For a further assay, the target named is T5, TcdA1-1832 (Clostridioides difficile strain VPI10463, UniProt P16154 1-1832).
T5 construct: range 1-1832; also called TcdA1-1832 (no CROPs domain)
Briefly: negative stain EM with single particle averaging.

Assay [5] concerns the target T3, full-length TcdA (TcdA1-2710). As to the kind of experiment: sandwich ELISA, capture A2B10, biotinylated detection A1A6.

T3 sequence (P16154 whole entry): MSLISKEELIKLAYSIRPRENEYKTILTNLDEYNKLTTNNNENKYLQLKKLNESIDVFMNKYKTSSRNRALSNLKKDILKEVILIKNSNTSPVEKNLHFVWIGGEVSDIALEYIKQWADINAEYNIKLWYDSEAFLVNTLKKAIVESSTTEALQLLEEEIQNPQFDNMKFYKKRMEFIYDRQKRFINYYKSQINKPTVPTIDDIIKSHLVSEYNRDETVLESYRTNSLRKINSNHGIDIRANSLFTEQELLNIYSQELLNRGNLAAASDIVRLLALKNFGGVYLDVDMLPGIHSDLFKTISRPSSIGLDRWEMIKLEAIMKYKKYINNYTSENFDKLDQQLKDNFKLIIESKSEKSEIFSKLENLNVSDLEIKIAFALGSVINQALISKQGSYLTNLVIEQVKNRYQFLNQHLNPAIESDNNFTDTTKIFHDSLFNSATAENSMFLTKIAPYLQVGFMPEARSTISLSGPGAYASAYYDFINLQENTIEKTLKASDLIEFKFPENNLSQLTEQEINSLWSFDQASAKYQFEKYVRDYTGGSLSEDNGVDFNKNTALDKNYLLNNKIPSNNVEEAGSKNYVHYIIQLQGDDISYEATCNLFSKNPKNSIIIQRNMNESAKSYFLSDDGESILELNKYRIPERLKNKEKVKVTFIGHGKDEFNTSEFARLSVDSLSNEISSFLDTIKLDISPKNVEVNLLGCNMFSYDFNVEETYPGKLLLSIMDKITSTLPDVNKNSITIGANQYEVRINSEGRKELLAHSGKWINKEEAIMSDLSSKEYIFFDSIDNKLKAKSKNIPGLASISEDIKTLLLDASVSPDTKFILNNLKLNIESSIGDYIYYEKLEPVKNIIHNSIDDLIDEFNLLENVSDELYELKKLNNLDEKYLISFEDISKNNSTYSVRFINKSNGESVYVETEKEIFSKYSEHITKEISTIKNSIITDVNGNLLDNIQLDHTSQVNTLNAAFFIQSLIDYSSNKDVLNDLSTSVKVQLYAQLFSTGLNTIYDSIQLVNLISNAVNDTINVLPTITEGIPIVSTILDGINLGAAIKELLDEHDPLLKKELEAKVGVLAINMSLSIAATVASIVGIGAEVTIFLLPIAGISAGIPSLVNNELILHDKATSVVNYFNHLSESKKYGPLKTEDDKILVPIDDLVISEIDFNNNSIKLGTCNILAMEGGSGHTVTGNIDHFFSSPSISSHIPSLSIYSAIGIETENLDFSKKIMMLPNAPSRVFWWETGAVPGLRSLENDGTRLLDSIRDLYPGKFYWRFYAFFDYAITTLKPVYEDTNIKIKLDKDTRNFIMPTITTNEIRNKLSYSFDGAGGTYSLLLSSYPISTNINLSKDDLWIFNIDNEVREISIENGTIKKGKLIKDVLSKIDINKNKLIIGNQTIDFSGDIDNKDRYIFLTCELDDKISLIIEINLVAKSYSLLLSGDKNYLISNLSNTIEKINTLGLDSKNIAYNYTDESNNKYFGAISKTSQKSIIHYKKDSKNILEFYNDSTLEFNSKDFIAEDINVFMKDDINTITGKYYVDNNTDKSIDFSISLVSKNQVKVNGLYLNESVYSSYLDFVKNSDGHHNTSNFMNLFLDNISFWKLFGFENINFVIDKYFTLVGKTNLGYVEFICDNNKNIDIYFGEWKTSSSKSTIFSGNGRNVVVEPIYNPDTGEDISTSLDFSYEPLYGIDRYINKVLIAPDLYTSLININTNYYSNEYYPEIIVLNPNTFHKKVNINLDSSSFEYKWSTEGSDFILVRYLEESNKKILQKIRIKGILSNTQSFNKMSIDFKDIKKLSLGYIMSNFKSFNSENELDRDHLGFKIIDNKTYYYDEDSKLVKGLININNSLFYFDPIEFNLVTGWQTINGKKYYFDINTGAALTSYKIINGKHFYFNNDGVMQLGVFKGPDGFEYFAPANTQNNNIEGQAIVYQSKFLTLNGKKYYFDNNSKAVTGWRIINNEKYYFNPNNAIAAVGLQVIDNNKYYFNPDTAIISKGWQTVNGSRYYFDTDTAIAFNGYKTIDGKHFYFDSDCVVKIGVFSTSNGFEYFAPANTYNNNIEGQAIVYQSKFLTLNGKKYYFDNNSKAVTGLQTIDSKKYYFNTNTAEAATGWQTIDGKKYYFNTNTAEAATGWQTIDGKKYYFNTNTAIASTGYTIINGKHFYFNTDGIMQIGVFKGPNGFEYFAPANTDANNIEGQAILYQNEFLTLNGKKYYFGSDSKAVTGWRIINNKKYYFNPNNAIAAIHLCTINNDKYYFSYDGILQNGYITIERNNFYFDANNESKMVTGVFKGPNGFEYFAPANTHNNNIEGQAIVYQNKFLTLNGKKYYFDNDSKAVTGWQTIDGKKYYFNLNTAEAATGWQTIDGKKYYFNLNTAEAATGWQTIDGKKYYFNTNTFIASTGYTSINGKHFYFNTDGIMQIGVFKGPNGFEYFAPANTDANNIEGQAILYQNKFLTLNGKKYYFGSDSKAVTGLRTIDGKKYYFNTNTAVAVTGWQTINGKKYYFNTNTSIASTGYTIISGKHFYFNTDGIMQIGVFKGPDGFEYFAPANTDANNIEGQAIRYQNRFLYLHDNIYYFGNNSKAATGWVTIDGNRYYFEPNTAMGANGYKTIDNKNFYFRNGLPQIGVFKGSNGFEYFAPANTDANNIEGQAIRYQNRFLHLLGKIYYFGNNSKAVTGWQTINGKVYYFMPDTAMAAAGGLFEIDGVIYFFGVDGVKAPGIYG
T2 sequence (P16154 1-542 limits assumed): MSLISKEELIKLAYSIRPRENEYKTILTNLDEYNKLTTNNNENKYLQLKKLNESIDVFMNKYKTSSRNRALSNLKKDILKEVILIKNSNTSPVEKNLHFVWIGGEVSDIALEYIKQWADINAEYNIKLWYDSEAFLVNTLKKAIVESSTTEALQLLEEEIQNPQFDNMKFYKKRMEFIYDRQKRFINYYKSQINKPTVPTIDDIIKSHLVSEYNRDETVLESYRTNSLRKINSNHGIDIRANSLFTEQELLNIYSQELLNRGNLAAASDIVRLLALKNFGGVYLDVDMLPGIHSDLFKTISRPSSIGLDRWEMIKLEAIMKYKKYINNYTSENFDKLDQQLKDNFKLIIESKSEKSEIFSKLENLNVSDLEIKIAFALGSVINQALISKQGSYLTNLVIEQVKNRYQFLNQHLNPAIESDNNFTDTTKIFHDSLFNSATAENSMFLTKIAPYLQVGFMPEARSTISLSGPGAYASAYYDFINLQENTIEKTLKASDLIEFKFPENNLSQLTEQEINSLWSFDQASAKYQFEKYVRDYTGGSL
T1 sequence (P18177 1827-2366 limits assumed): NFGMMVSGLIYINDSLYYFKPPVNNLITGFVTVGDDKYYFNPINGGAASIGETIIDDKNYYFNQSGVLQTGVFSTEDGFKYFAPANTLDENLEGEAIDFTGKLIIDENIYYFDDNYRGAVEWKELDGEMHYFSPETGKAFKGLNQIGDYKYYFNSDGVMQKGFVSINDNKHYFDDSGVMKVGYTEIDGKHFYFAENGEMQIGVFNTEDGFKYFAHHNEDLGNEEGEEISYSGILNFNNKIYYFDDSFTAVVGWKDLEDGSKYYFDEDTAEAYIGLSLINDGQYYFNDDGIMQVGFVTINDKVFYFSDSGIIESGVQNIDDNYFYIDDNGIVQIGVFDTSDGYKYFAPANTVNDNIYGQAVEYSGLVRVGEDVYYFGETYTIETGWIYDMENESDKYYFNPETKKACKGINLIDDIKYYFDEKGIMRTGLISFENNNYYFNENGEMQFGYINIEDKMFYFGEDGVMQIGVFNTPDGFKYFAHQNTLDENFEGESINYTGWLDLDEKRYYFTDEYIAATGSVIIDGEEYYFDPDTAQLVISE

B1: B2F11 (VHH)
VHH: QVQLQESGGGLVQAGGSLTLSCTASGFTFSNYVMSWYRQAPGKEREWVASVSESGQSRTYADSVKGRFTISRDNTNFSVYLQMNNLNSEDTAVYYCNTGSRTYGARYWGQGTQVTVSS
Regarding B1, the “EC50 (nM), TcdB neutralization, Vero cells” value in assay [1] came to 15.6 nM. Further, the binding result in assay [2] is listed as “binds”.

B2: A2H9 (VHH)
VHH: QVQLQESGGGLVQAGGSLRLSCAASGRASSTYVMAWFRQAPGKEREFVAADTWGGAGTYYAPSVKGRFTISRDNAKNMLYLQMNSLKPEDTAAYYCAAGQGRSVTLFQPSTYDYWGQGTQVTVSS
As to B2, the binding result with TcdA-GTD (TcdA1-542) is given as “no binding”. In assay [3], the “EC50 (nM), TcdA neutralization, T84 cells” value (shortened to “EC50 (nM) … T84 cells”) stood at 105 nM and the “EC50 (nM), TcdA neutralization, Vero cells” value was 8.7 nM.

B3: B1A11 (VHH)
VHH: QVQLQESGGGVVQPGGSLRLTCTSSRSINIYVAMGWYRQAPGKQRERVATAHKDGGTRYSDSVKGRFTISRDDDKNTVYLQMNNLEPGDTAVYYCNAFGSSAWGQGTQVTVSS
As for B3, in assay [1], the “EC50 (nM), TcdB neutralization, Vero cells” value is 38.4 nM. The binding result in assay [2] is listed as “binds”.

B4: A1C3 (VHH)
VHH: QVQLQESGGGLVQPGGSLRLSCAASGRIFSIKSMGWYRQAPGKQRELVADITSGGSTNYADSVKGRFTISRDSAWNTVYLQMNSLKPEDTAVYYCRRVVVTPYPDEYEYDYWGQGTQVTVSS
notes: also called Nb A1C3
For B4, the binding result with TcdA-GTD (TcdA1-542) is on record as “no binding”; in assay [4], “binds”; in the assay with TcdA1-1809, “binds”; with TcdA1-1832 it was “binds”.

B5: A1G4 (VHH)
VHH: QVQLQESGGGLVQAGGSLRLSCAVSGRTLNSYAMGWFRQALGKEREFVAGISRAGGMTRYTDSVKGRFTISRDDAKNTVYLQMNSLKPDDTAVYSCAASFALVDSAGAYDYWGQGTQVTVSS
As for B5, the binding result in the assay with TcdA-GTD (TcdA1-542) was “no binding”. In assay [3], the “EC50 (nM) … T84 cells” value is 844 nM and the “EC50 (nM), TcdA neutralization, Vero cells” value is 8.5 nM.

B6: A2G5 (VHH)
VHH: QVQLQESGGGLVQAGGSLRLSCAVSGRTLSSYAMGWFRQALGKEREFVAGISRGGGMTRYTDSVKGRFTISRDDAKNTVYLQMNSLKPDDTAVYSCAASYALIDMSSAYDYWGQGTQVTVSS
Regarding B6, in the assay with TcdA-GTD (TcdA1-542), the binding result was “no binding”. The “EC50, TcdA neutralization, T84 cells” value in assay [3] is greater than 10000 nM.

B7: A1A6 (VHH)
VHH: QVQLQESGGGSVQAGGSLRLSCAASGFIDDDYAIGWFRQAPGKEREGISCISSSNGKIHYADSVKGRFTISEDIAKKTVYLQMNFLKPEDTAVYYCAAETRGWSYCSGYGWSRYKYWGQGTQVTVSS
notes: also called Nb A1A6; A1A6-Avi
As to B7, the binding result in assay [5] is recorded as “binds”.

B8: A2G6 (VHH)
VHH: QVQLQESGGGLVQAGGSLRLSCAASGRTFSRIAMGWFRQVPGKEREFVAGISGNGGTFYTDSVKGRFTISRDNTKNTVYLQMNSLRPEDTAVYYCAADPNYRATYFPYGMDYYGRGTQVTVSS
Regarding B8, the binding result with TcdA-GTD (TcdA1-542) is reported as “no binding”. Further, in assay [3], the “EC50 (nM) … T84 cells” value worked out at 9.2 nM and the “EC50 (nM), TcdA neutralization, Vero cells” value was less than 1 nM.

B9: A1F4 (VHH)
VHH: QVQLQESGGGLVQAGGSLRLSCTASGRTFTTYNWAWFCQAPGKEREFVAAITGLTRHTYYADSVKGRFTISRDNAKNTVYLQMNSLKPEDTAVYFCAVSSGGDLNERVNYEYWGQGTQVTVSS
Consider B9, for which the binding result with TcdA-GTD (TcdA1-542) is recorded as “no binding”. In addition, in assay [3], the “EC50, TcdA neutralization, T84 cells” value is greater than 10000 nM.
